System: MS2 coat protein
Assay: apparent KD of MS2 coat protein; designed switch direction (-1 OFF switch, 1 ON switch): -1; higher = weaker reporter binding
In short: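 An oligonucleotide input, 200 uM small-molecule ligand, or no input was present during titration of SNAP-549-labelled MS2 coat protein, which was doubled from 0.7 or 1.5 nM to 3 µM. Designed RNA switches had been transcribed on Illumina chips by stalled E. coli RNA polymerase. Apparent KD per design is the median over clusters of curves fitted to normalised cluster fluorescence.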

[1] = Eterna round: R95, input ligand: microRNA oligo, concentration not stated
[2] = input ligand: microRNA oligo, concentration not stated
[3] = Eterna round: R95, input ligand: FMN 200 uM
[4] = Eterna round: R95, input ligand: none

Sequence	apparent KD of MS2 coat protein (input ligand: FMN 200 uM)	apparent KD of MS2 coat protein (input ligand: none)	also measured
UCGCUGCGAGGAUAUACAUGAGGAUCACCCAUGUGCGGGUCCGGGUCUUCGUCCAUUGGUAGAAGGCGCAGUGA [JL Laongeedie mod 6] (puzzle: Exclusion 3)			apparent KD of MS2 coat protein [1]: 43 nM
UCGGCGUCAGGAUAUCCAAUAUAUGACAUGAGGAUCACCCAUGUUUCCACUCGUACCUCCGGAGAAGGGACGAAUA [Ex5 #91] (Eterna round: R97, puzzle: Exclusion 5)	30.9 nM	35.7 nM	
UCGGGCUCAGAGGAUAUGGGCGAAAAUAUAAAACCAGAAGGCUGAACUUGAGGAUCACCCAAGUACGGGCAAAA [Inxeridi] (Eterna round: R97, puzzle: Exclusion 6)	143 nM	67.9 nM	
UCGUUCCGUGUAGGAUAUUGGCCUUCUCUGGGCCGAGAAGGACAUGAGGAUCACCCAUGUAUGUUAUUAUCGCGCGUGGCGCAU [Design 85] (Eterna round: R96, puzzle: Exclusion NG 1)			apparent KD of MS2 coat protein [2]: 24.7 nM
UCUAGACAUGAGGAUCACCCAUGUGAGGAUAUGAUGCGAUCGUCGAAAGACGAUAGCAUCAGAAGGCACAUAUG [Fiskers Ex 1 - 4] (puzzle: Exclusion 1)			apparent KD of MS2 coat protein [1]: 117 nM
UCUAGCUUUUUGCGUCAAGCAUUGAAGUCUGUGAUCGUUACAUGAGGAUCACCCAUGUAUGUUUUAUGUCGUCUUGU [JR_SV3TOV2_Sub099] (puzzle: Sensor v3, turn-off variant 2)			apparent KD of MS2 coat protein [3]: 37.2 nM; apparent KD of MS2 coat protein [1]: 33.1 nM; apparent KD of MS2 coat protein [4]: 43.9 nM
UCUAUUUUGCGAGGAUAUCGACCAUUCCUCUUUACAUGAGGAUCACCCAUGUUCUUUUUCUACAACGAGAAGGCGCUCAUAGUU [JR_ExcNG2_Sub062] (Eterna round: R96, puzzle: Exclusion NG 2)	73.5 nM	61.6 nM	apparent KD of MS2 coat protein [2]: 67.7 nM
UCUCAGCCUAAGGAUAUGAGCCGAACCAAAAGUUCAGAAGGUAGGACAUGAGGAUCACCCAUGUGAGCCUACAC [Eternabot (Original) Solution 39] (Eterna round: R97, puzzle: Exclusion 6)	34.3 nM	21.3 nM	
UCUCGAAGGCAAGGAUAUCCUACAUUGUUCUGGCCCGGGCAUGCUACAUGAGGAUCACCCAUGUGGGAGAAGGUGCGCCACUGC [Design 28] (Eterna round: R96, puzzle: Exclusion NG 2)	69.6 nM	72 nM	apparent KD of MS2 coat protein [2]: 47.1 nM
UCUCGACAUGAGGAUCACCCAUGUCAGGAUAUUGUAUUAGAGGUUUUUUACCUUAUAACAAGAAGGGAUGUGUG [LRO-Excl1-23] (puzzle: Exclusion 1)			apparent KD of MS2 coat protein [1]: 23.6 nM
UCUCGCUGGCGAGGAUAUCCUGUGCGGUUCCGGCUCGUGUCUGUUACAUGAGGAUCACCCAUGUGGGAGAAGGUGCCUGUGGCU [Design 94] (Eterna round: R96, puzzle: Exclusion NG 2)			apparent KD of MS2 coat protein [2]: 22 nM
UCUCUGCGAGGAUAUACGUUUGCGCGCUUUCGUUUGCGCGUACAUGAGGAUCACCCAUGUAGAAGGCGCGUUUC [Apr-15 SS2-9] (puzzle: Exclusion 2)			apparent KD of MS2 coat protein [1]: 12.6 nM
UCUCUGUGAGGAUAUUGAACGACGCCGCUAACGGGCUUGCACAAGAAGGCACAUGAGGAUCACCCAUGUCCCGA [EX4 B.28] (Eterna round: R97, puzzle: Exclusion 4)	29.1 nM	20.7 nM	
UCUGCCGCUGUGAGGAUAUGCCCAAAUAAAAGCGGGCAGAAGGCACAUGAGGAUCACCCAUGUCCUGCGGUUUU [salish99_bmx4_r4_143] (Eterna round: R97, puzzle: Brourd's mod of Exclusion 4)	180 nM	28.8 nM	
UCUUUAGGUGUUAGGAUAUACCUGCGCAAAGUUAGGUAGAAGGGACAUGAGGAUCACCCAUGUGCGUCCACAAU [Eternabot (L1) Solution 29] (Eterna round: R97, puzzle: Brourd's mod of Exclusion 4)	30.4 nM	27.5 nM	
UGAGCAUGAGGAUAUACAAGGCGACCGUGAGGUCGAGGUUUACAUGAGGAUCACCCAUGUAGAAGGCAUGUUCU [jl-ex2-4.07] (Eterna round: R97, puzzle: Exclusion 2)	40.2 nM	20 nM	
UGAGCUUGAGGAUAUACAAUGAGCUUGAGAAAUCGAGUUCGACAUGAGGAUCACCCAUGUAGAAGGCGAGUUCG [-37.5, -35.6 kcal, A 28% 1 and 1] (Eterna round: R97, puzzle: Exclusion 2)	28.1 nM	17.7 nM	
UGAUCACAUGAGGAUCACCCAUGUCAGGAUAUCGUCACUGGAGCUGCGGCUCCAGUGACGAGAAGGGAUAUAAU [E1/5-A3] (Eterna round: R97, puzzle: Exclusion 1)	293 nM	104 nM	

Sequence	apparent KD of MS2 coat protein (input ligand: FMN 200 uM)	apparent KD of MS2 coat protein (input ligand: none)	also measured
UGAUCACAUGAGGAUCACCCAUGUCAGGAUAUCUACAUUGAAGCCUCGGCUUCAAUGUAGAGAAGGGAUAUAAU [E1/5-B2] (Eterna round: R97, puzzle: Exclusion 1)	189 nM	86.8 nM	
UGAUCUAGCGGAGGAUAUACAUGAGGAUCACCCAUGUAUAGGCUAUGACCGUAGUCGUGGAACAUGUAGAAGGCCGCUAGAUCU [JL ENG2 3.79] (Eterna round: R96, puzzle: Exclusion NG 2)	569 nM	45.9 nM	apparent KD of MS2 coat protein [2]: 40.3 nM
UGAUGACAUGAGGAUCACCCAUGUCAGGAUAUUGAUCGUGAUCGGAAAUGAUCGUGAUCGAGAAGGGACUGUCG [-24.4, -21.4 kcal, A 28%, 2] (Eterna round: R97, puzzle: Exclusion 1)	31.8 nM	27.6 nM	
UGAUUGUUUACCAGGUUAUACAUGAGGAUCACCCAUGUAGAUCCUACGUGCGCGUUAUACCGCUCGUCUUAUUCCCA [Sensor-V1 #77] (Eterna round: R97, puzzle: Sensor, turn-off variant 1)	19.1 nM	19.8 nM	
UGCAGACGAGGAUAUAGAUUUAGAUACAUGAGGAUCACCCAUGUAUAUAUGUAUUUAGAUUUAGAAGGCGUCUGCU [E5/15-A4] (Eterna round: R97, puzzle: Exclusion 5)	240 nM	283 nM	
UGCCUAUGAGGAUAUACAUUGAAUAAGAUUCAUGUAAAACUACAUGAGGAUCACCCAUGUAGAAGGCAUGGGCU [Mat - Exclusion 2 - JL Mod - D70] (Eterna round: R97, puzzle: Exclusion 2)	29 nM	19.1 nM	
UGCGGGCUUUUGAGACCUCACAUGAGGAUCACCCAUGUGCUUGUCUUGUGGGUCGGUCGGUCGUUGGCUGGCUGACG [Sensor-V1 #96] (Eterna round: R97, puzzle: Sensor, turn-off variant 1)	19.2 nM	19.3 nM	
UGCGGGCUUUUGAGACCUCACAUGAGGAUCACCCAUGUGCUUGUCUUGUGGGUCGGUCGGUCGUUGGCUGGCUGGCG [Sensor-V1 #95] (Eterna round: R97, puzzle: Sensor, turn-off variant 1)	20 nM	19.3 nM	
UGCGGUUGAGGAUAUACGUAGAACUAGGUUCAUGUAAAACUACAUGAGGAUCACCCAUGUAGAAGGCAAUCGCU [Mat - Exclusion 2 - JL Mod - D41] (Eterna round: R97, puzzle: Exclusion 2)	23.9 nM	20.3 nM	
UGCUAGUCAGGAUAUACGAACAUGUCAAAAGACGUGAAGGGACAUGAGGAUCACCCAUGUAGAAGGGACUAGCU [salish99_ex2_r3_006] (puzzle: Exclusion 2)			apparent KD of MS2 coat protein [3]: 165 nM; apparent KD of MS2 coat protein [1]: 25.2 nM; apparent KD of MS2 coat protein [4]: 27.1 nM
UGCUAGUGAGGAUAUGCUGGAAUAAAGAUUUGACGUGGCGAACAUGAGGAUCACCCAUGUAGAAGGCACAAUAC [Ususedes] (puzzle: Exclusion 2)			apparent KD of MS2 coat protein [1]: 12.1 nM
UGCUGAGUUGACAGUGGUAACAUGAGGAUCACCCAUGUAUGUUUGUGCUUAAGCGGGUUGUUUCUUGUUCGUCUCUC [Eternabot (L2) Solution 5] (Eterna round: R97, puzzle: Sensor, turn-off variant 1)	262 nM	349 nM	
UGGACACCAGUAGGAUAUGUAGGAUAUGUUGUUGAGGAUCACCCAACAAAUUAAACGACAGAAGGACAGAAGGACUAUUAUCCU [pwkr exNG2 2xFMN 1xF5.1] (Eterna round: R96, puzzle: Exclusion NG 2)	52.5 nM	60.8 nM	apparent KD of MS2 coat protein [2]: 57.8 nM
UGGCUACCUUGGUGCUCUACAAGCUUUUUGCUCGUUUUAACAUGAGGAUCACCCAUGUCUAGUGGAUCUGAUCGGGC [JL ViennaUCT Isreen mod 1] (puzzle: Sensor v3, turn-off variant 2)			apparent KD of MS2 coat protein [3]: 62.1 nM; apparent KD of MS2 coat protein [1]: 139 nM; apparent KD of MS2 coat protein [4]: 62.7 nM
UGGGUACUCCAUAGAAGAAACAUGAGGAUCACCCAUGUAGGGCAAGUUUUUUGCUCGUCAUAGGUUGAGGGAUUGGA [JR_SV3TOV1_Sub016] (puzzle: Sensor v3, turn-off variant 1)			apparent KD of MS2 coat protein [3]: 685 nM; apparent KD of MS2 coat protein [1]: 343 nM; apparent KD of MS2 coat protein [4]: 978 nM
UGGUAACAUGAGGAUCACCCAUGUCAGGAUAUCAGGAAGAAGAGAGGAGAGUAGAAGAUGAGAAGGGACUAUAU [Excluse me! 10 - Jieux - Exclusion 1] (puzzle: Exclusion 1)			apparent KD of MS2 coat protein [3]: 20.2 nM; apparent KD of MS2 coat protein [1]: 24.5 nM; apparent KD of MS2 coat protein [4]: 27.5 nM
UGGUAAUCAGUUAGGAUAUCAUCCGGCGUUGUCGGUGAGAAGGAACAUGAGGAUCACCCAUGUAUCGAUUUUAG [BmEX4 B.13] (Eterna round: R97, puzzle: Brourd's mod of Exclusion 4)	26.5 nM	19 nM	
